Test results taken from paper PMC10203562.

Tests used:
Assay in all cases: SPR; Biacore 8K+; anti-human IgG (Fc) amine-coupled to CM5 captures the antibody (10-25 RU); PCSK9 50 nM to 12 pM flowed over, 240 s association, 1800 s dissociation; Langmuir 1:1 global fit; duplicates
bococizumab variant AEGQ = molecular target: bococizumab variant AEGQ
bococizumab variant AEPA = molecular target: bococizumab variant AEPA
bococizumab variant EDGM = molecular target: bococizumab variant EDGM
bococizumab variant PEGQ = molecular target: bococizumab variant PEGQ
bococizumab variant PELW = molecular target: bococizumab variant PELW
bococizumab variant PENW = molecular target: bococizumab variant PENW
bococizumab variant PERQ = molecular target: bococizumab variant PERQ
bococizumab variant PFGQ = molecular target: bococizumab variant PFGQ
bococizumab variant SEGQ = molecular target: bococizumab variant SEGQ
bococizumab variant SELW = molecular target: bococizumab variant SELW
bococizumab = molecular target: bococizumab

Kd (bococizumab variant AEGQ): 190 pM
Kd (bococizumab variant AEPA): 210 pM
Kd (bococizumab variant EDGM): 660 pM
Kd (bococizumab variant PEGQ): 200 pM
Kd (bococizumab variant PELW): 190 pM
Kd (bococizumab variant PENW): 240 pM
Kd (bococizumab variant PERQ): 250 pM
Kd (bococizumab variant PFGQ): 250 pM
Kd (bococizumab variant SEGQ): 350 pM
Kd (bococizumab variant SELW): 270 pM
Kd (bococizumab): 250 pM
Substance: proprotein convertase substilisin/kexin type 9 (PCSK9) (from UniProt Q8NBP7 153-692) (natural protein)
